Laboratory results as given in patent US20210138090A1, “uPAR targeting peptide for use in peroperative optical imaging of invasive cancer” (FLUOGUIDE A/S, priority 2014, published 2021).
Square brackets hold non-standard residues; d marks the D form. Peptide text beside a SMILES is read from it. * marks the point of attachment. IRDye800CW = CC1(C)C(/C=C/C2=C(Oc3ccc(S(=O)(=O)O)cc3)C(=C/C=C3/N(CCCCS(=O)(=O)O)c4ccc(S(=O)(=O)O)cc4C3(C)C)/CCC2)=[N+](CCCCCC(=O)*)c2ccc(S(=O)(=O)[O-])cc21; Cha = N[C@@H](CC1CCCCC1)C(=O)O; AEEA = NCCOCCOCC(=O)O

Experiments:
[1] = photostability under continuous laser exposure; type: physicochemical
Protocol: The photostability was evaluated by a factor 2 dilution series with four samples from 0.23-1.8 nM IRDye800-AE344 in 100 μL phosphate buffered saline (PBS) placed in a black 96-well plate. The well was placed in a black box with the Fluobeam mounted in the top at a distance of 23 cm from the well plate. Image acquisition was performed at 0 min, 10 min, 15 min, 20 min, 0.5 h, 1 h, 2 h, 3 h, 6 h, 10 h, 15 h, 24 h. Each dilution sample was normalized to time point 0 and the data from all four samples were pooled.

[2] = test system: orthotopic GBM (U-87 MG-luc2 cells); test: in vivo binding specificity in orthotopic GBM (blocking with AE120, scrambled probe); parameters: species or system mice; details: 3 nmol, 1 h
Protocol: The target specificity to uPAR was evaluated by two different methods: competitive blocking with the uPAR targeting peptide AE120 ((DChaFsrYLWSG)2-βAK) and IRDye800 conjugated to a scrambled peptide, AE354 (IRDye800CW-Glu-Glu-NH—CH2—CH2—O—CH2—CH2—O—CH2—CO—NH—CH2—CH2—O—CH2—CH2—O—CH2—CO-Asp-Cha-Glu-(D)Ser-(D)Arg-Tyr-Leu-Glu-Ser-OH) with similar peptide length as the active peptide. The competitive blocking dose of 1.4-2.8 mg AE120 was injected intraperitoneally 15-30 min prior to intravenous injection of 3 nmol IRDye800CW-AE344 and imaged at 1 h (n=5). The scrambled peptide was administered at 3 nmol and the animals were imaged after 1 h (n=4).
Images were analyzed and processed in ImageJ 1.52a, NIH, USA. Signal measurements were performed on the raw images generated by the Fluoptics system. Tumor signal was measured as a mean fluorescence intensity of the whole tumor and background signal was measured as the mean of a representative area with no tumor on the contralateral hemisphere. Presented pictures are contrast enhanced in ImageJ with the Contrast Enhancement (Saturated pixels: 0.3%).

[3] = acute toxicity: liver and kidney histology; type: in vivo, mice; details: 3 nmol, 1 h post injection
Excerpt: Liver and kidneys: Tissue was formalin fixed and paraffin embedded. Sections of 2-4 um thick were cut and a routine staining panel applied including: H&E, modified sirius, PAS and Masson trichome for both and additional PAS with silver for kidneys and PAS with diastase, iron, reticulin artisan and oxidised orcein for the livers. Livers were immunohistochemically stained, immunohistochemical evaluation on 3 μm thick sections was done using the CK7 antibody from Dako/Agilent, GA619 (clone OV-TL12/30) following the manufacturer's instructions. The staining took place on the Omnis from Agilent utilizing the EnVision Flex+ detection kit (GV800). The primary antibody was diluted using Antibody Diluent (Dako DM830) and were incubated for 20 minutes. The sections were counterstained with hematoxylin.

Structure (SMILES): CC(C)C[C@H](NC(=O)[C@H](Cc1ccc(O)cc1)NC(=O)[C@@H](CCCNC(=N)N)NC(=O)[C@@H](CO)NC(=O)[C@H](Cc1ccccc1)NC(=O)[C@H](CC1CCCCC1)NC(=O)[C@H](CC(=O)O)NC(=O)COCCOCCNC(=O)COCCOCCNC(=O)[C@H](CCC(=O)O)NC(=O)[C@H](CCC(=O)O)NC(=O)CCCCC[N+]1=C(/C=C/C2=C(Oc3ccc(S(=O)(=O)O)cc3)C(=C/C=C3/N(CCCCS(=O)(=O)O)c4ccc(S(=O)(=O)O)cc4C3(C)C)/CCC2)C(C)(C)c2cc(S(=O)(=O)[O-])ccc21)C(=O)N[C@@H](Cc1c[nH]c2ccccc12)C(=O)N[C@@H](CO)C(=O)O [IRDye800CW-AE344, IRDye800-Glu-Glu-O2Oc-O2Oc-Asp-Cha-Phe-D-ser-D-arg-Tyr-Leu-Trp-Ser-OH] (IRDye800CW-EE[AEEA][AEEA]D[Cha]F[dS][dR]YLWS-OH)
- preserved fluorescence intensity (photostability) ([1]; continuous laser exposure for 1 h): 84%
- preserved fluorescence intensity (photostability) ([1]; continuous laser exposure, after 2 h): 62%
- TBR ([2]; blocked with AE120): 4.6
- normalized TBR (ref: active probe) ([2]; competitively blocked with AE120): 0.70
- TBR ([2]; no blocking): 6.6
- normalized TBR (ref: active probe) ([2]; no blocking): 1.00
- kidney histology (H&E stained) [3]: normal
- liver histology (H&E stained) [3]: normal
